Reference: patent US20030130484A1, “Inhibitors and disassemblers of fibrillogenesis” (priority 2001, published 2003)
Where two headings read alike, the source gives them in different places.

How the values were obtained:
[1] = molecular target: human Aβ1-40 peptide (human); assay: cell-based or functional assay
Aβ16-22m = assay: size exclusion chromatography, self-association
[2] = molecular target: human Aβ1-40 peptide (human); assay: cell-based or functional assay; remark: listed apart in the source

Row | Binder | IC50 of inhibition of fibrillogenesis (thioflavin fluorescence) (inhibitor:Aβ40 ratio) [1] | Inhibition of Fibrillogenesis IC50 (thioflavin fluorescence) (inhibitor:Aβ40 molar ratio) [1] | Inhibition of Fibrillogenesis ICmax [1] [%] | Inhibition of Fibrilogenesis IC50 (µM) [1] [µM] | Inhibition of Fibrilogenesis ICmax (%) [1] [%] | molar excess giving complete elimination of thioflavin fluorescence (fold molar excess) [1] | percent oligomer (% oligomer (at 0.1 mg/ml)) (Aβ16-22m) | percent oligomer (% oligomer (at 6 mg/ml)) (Aβ16-22m) | Inhibition IC50 (thioflavin T fluorescence) (inhibitor to Aβ40 molar ratio) [1] | Inhibition ICmax [1] [%] | Inhibition IC50 (thioflavin T assay) (inhibitor:Aβ1-40 ratio) [2] | ratio giving complete elimination of thioflavin fluorescence (inhibitor:Aβ40 ratio) [1] | Inhibition ICmax [2] [%]
1 | KLVFFAE (modifications not checked) [Aβ16-22m] | 4 | 4.2 | 100 | 4.2 | 100 | 30 | 1 to 91 | 1 to 91 | – | – | – | – | –
2 | KLVFF (modifications not checked) [Aβ16-20m] | – | – | – | 0.4 | 100 | – | – | – | 6.5 | 100 | 6.9 | – | –
3 | ELVFFAK (modifications not checked) [Aβ16-22mR] | 9 | 7.8 | 100 | 7.8 | 100 | – | – | – | – | – | – | 50 | –
4 | KLVFF (modifications not checked) [Aβ16-20] | – | – | – | – | – | – | – | – | 5.3 | 89 | 9.7 | – | 100
5 | KLVFF (modifications not checked) [Aβ16-20e] | – | – | – | – | – | – | – | – | – | – | 3.7 | – | 100
